Test system: Bacillus subtilis
Assay: cleaved RNA product abundance (RNA/gDNA barcode ratio) relative to median wild-type variant (ratio to wild type); higher = more accumulation of the downstream cleavage product
Protocol: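 MPRA in B. subtilis. Mutagenized RNase Y cleavage-site regions (9% mutation rate) were inserted into a barcoded reporter mRNA (truncated aprE or tetM). Cells were grown in LB at 37°C to OD600 0.3. The cleaved RNA isoform was gel-purified and its barcodes counted; the RNA:gDNA barcode ratio was normalised to the median wild-type variant, and the median over barcodes is reported per variant. The printed sequence is the variable window only; the reporter flanks are not printed.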

[1] = experiment (reporter, strain, medium): exp 8a: truncated aprE reporter, strain BJT201 with 2% xylose (RNase J1 expressed), cleavage site: glnRA (positions -5 to +31 mutated)
[2] = experiment (reporter, strain, medium): exp 4a: truncated aprE reporter, strain BJT201 with 2% xylose (RNase J1 expressed), cleavage site: cggR-gapA (positions -7 to +36 mutated)
[3] = experiment (reporter, strain, medium): exp 2b: truncated aprE reporter, strain BJT200, cleavage site: cggR-gapA (positions -7 to +36 mutated)
[4] = experiment (reporter, strain, medium): exp 6: tetM reporter, strain 168, cleavage site: cggR-gapA (positions -7 to +36 mutated)

Sequence | cleaved RNA product abundance [2] | further results
CGACATGTCCCGCTTCTTTCATTAATCCGTTGGCAACTGTTTAGCTATATACATTTACCTTTTAAGAGGAGGAAT |  | cleaved RNA product abundance [1]: 0.38
ACAGACGAAGGAGCCGCAACGAAGTTATTAAAGGATGAATAATCCCTCAATATAAATATCTCTCACTTATTTAAA | 0.213 | 
ACAGACGAAGGAGCCGCAAAGAAGTTATGAAGGGATGAATAATTCCTCAATATAAATATCTCTCACTTATTTAAA | 0.316 | cleaved RNA product abundance [3]: 0.274
CGACATGTCCCGCTTCTTTCATTAATCCGTTAGCAACTGTTTTGCTTTATACATTTAACTTTTAAGAGGAGGAAT |  | cleaved RNA product abundance [1]: 0.346
CGACATGTCCCGCTTCTTTCATTAATCCGTTTGCAACTGTTTTGCTATATACATTTACTTTTTAAGAGGAGGAAT |  | cleaved RNA product abundance [1]: 0.552
ACAGACGAAGGAGCCGCAAAGAAGTTATTAAGTGATGAATAATCCGTCAATATAAATATCTCTCACTTATTTAAA | 0.0842 | cleaved RNA product abundance [3]: 0.103
ACAGACGAAGGAGCCGCAAATAAGTTATTAAGGGATGAATAATCCCTCAATAAAAATATCTCTCACTTATTTAAA | 0.143 | 
ACAGACGAAGGAGCCGCAGAGAAGTTTTTAAGGGATGAATAATCCCTCAATATAAATATCTCTCACTTATTTAAA | 0.37 | 
ACAGACGAAGGAGCCGCAAAGAAGTTATTAAGGGGTGAATAATTCCTCAATATAAATATCTCTCACTTATTTAAA | 0.228 | 
ACAGACGAAGGAGCCGCAAAGAAGTTATTAAGGAATGAATCATCCCTCAATATAAATATCTCTCACTTATTTAAA | 0.151 | 
ACAGACGAAGGAGCCGCAAGGAAGTTATTAAGGGATGAAAAATCCCTCAATATAAATATCTCTCACTTATTTAAA | 0.663 | 
ACAGACGAAGGAGCCGCAAAGAAGTTATTAAGGGATGCATAATCCCTAAATATAAATATCTCTCACTTATTTAAA | 0.76 | 
CGACATGTCCCGCTTCTTTCATTAATCCGTTAGCAACTTTTTTGCTATATACAATTACCTTTTAAGAGGAGGAAT |  | cleaved RNA product abundance [1]: 1.63
ACAGACGAAGGAGCCGCAAAGAGGTTATTAATGGATGAATAATCCCTCAATATAAATATCTCTCACTTATTTAAA | 0.0978 | cleaved RNA product abundance [3]: 0.13
ACAGACGAAGGAGCCGCAAAGAAGTGATTAAGGGTTGAATAATCCCTCAATATAAATATCTCTCACTTATTTAAA | 0.263 | cleaved RNA product abundance [3]: 0.15
ACAGACGAAGGAGCCGCAAAGAAGTTATTAAGGTAAGAATAATCCCTCAATATAAATATCTCTCACTTATTTAAA | 0.0843 | 
ACAGACGAAGGAGCCGCAAAGAAGTTATTAAGGGATGAATAATCCATCAATACAAATATCTCTCACTTATTTAAA | 0.0901 | 
ACAGACGAAGGAGCCGCAAAGACGTTATTAAGGGATGAATAAACCCTCAATATAAATATCTCTCACTTATTTAAA | 0.312 | 
ACAGACGAAGGAGCCGCAAATAAGTTATTAAGGGAAGAATAATCCCTCAATATAAATATCTCTCACTTATTTAAA | 0.366 | cleaved RNA product abundance [3]: 0.497
CGACATGTCCCGCTTCTTTCATTAAACCGTTAGCAACTGTTTTGCTATATACATTTACTTTTTAAGAGGAGGAAT |  | cleaved RNA product abundance [1]: 0.665

Sequence | cleaved RNA product abundance [2] | further results
CGACATGTCCCGCTTCTTTCATTAATCCGTTAGCAACTGTTTTACTATATTCATTTACCTTTTAAGAGGAGGAAT |  | cleaved RNA product abundance [1]: 0.189
ACAGACGAAGGAGCCGCAAAGAAGATATCAAGGGATGAATAATCCCTCAATATAAATATCTCTCACTTATTTAAA | 0.522 | 
ACAGACGAAGGAGCCGCAAAGAAGATATTAAGGGATGAATAATCCCTAAATATAAATATCTCTCACTTATTTAAA | 0.665 | cleaved RNA product abundance [3]: 0.702; cleaved RNA product abundance [4]: 0.475
ACAGACGAAGGAGCCGCAAAGAAGTTATTAAGGGATGAAAAATCCGTCAATATAAATATCTCTCACTTATTTAAA | 0.355 | 
ACAGACGAAGGAGCCGCAAAGAAGTTATTAATGGATGAATAATCCCTCATTATAAATATCTCTCACTTATTTAAA | 0.201 | 
ACAGACGAAGGAGCCGCAAAGAAGTTATTAAGTTATGAATAATCCCTCAATATAAATATCTCTCACTTATTTAAA | 0.13 | cleaved RNA product abundance [3]: 0.0915
ACAGACGAAGGAGCCGCAAAGAACTTATTAAGGGATGAATCATCCCTCAATATAAATATCTCTCACTTATTTAAA | 0.36 | 
ACAGACGAAGGAGCCGCAAAGAAGTTTTTAAGGGATGAATAATCCCTCAATATAAATATCTCTCACTTATTTAAA | 0.365 | cleaved RNA product abundance [3]: 0.274; cleaved RNA product abundance [4]: 0.209
ACAGACGAAGGAGCCGCAAAGAAGTTATTACGGGATGAATAATCCCTCGATATAAATATCTCTCACTTATTTAAA | 0.259 | 
CGACATGTCCCGCTTCTTTCATTAATCCGTTATCAACTGTTTTGCTATATAGATTTACCTTTTAAGAGGAGGAAT |  | cleaved RNA product abundance [1]: 0.418
CGACATGTCCCGCTTCTTTCATTATTCCGTTAGCAACTGTTTTGCTATATACATTTAACTTTTAAGAGGAGGAAT |  | cleaved RNA product abundance [1]: 1.71
ACAGACGAAGGAGCCGCAAAGAAGTTATTAATGGATGAATAATCCCTCAACATAAATATCTCTCACTTATTTAAA | 0.101 | 
ACAGACGAAGGAGCCGCAAAGAAGTTATTAAAGGATGAATAATCCCTCGATATAAATATCTCTCACTTATTTAAA | 0.0487 | cleaved RNA product abundance [3]: 0.0861
CGACATGTCCCGCTTCTTTCATTAATCCATTAGCAACTGTTTTACTATATACATTTACCTTTTAAGAGGAGGAAT |  | cleaved RNA product abundance [1]: 0.48
CGACATGTCCCGCTTCTTTCATTAATCCTTTAGCAACTGTTTCGCTATATACATTTACCTTTTAAGAGGAGGAAT |  | cleaved RNA product abundance [1]: 0.282
ACAGACGAAGGAGCCGCAAAGAAGTTATTAAGGGATAAATAATGCCTCAATATAAATATCTCTCACTTATTTAAA | 0.0991 | 
CGACATGTCCCGCTTCTTTCATTAATCCGTTATCAACTGTTTCGCTATATACATTTACCTTTTAAGAGGAGGAAT |  | cleaved RNA product abundance [1]: 0.192
CGACATGTCCCGCTTCTTTCATTAATCCGTTAGCAACTGATTTGCTAAATACATTTACCTTTTAAGAGGAGGAAT |  | cleaved RNA product abundance [1]: 0.217
ACAGACGAAGGAGCCGCAAAGAAGTTATTAAGGGATGAATAAACACTCAATATAAATATCTCTCACTTATTTAAA | 0.172 | cleaved RNA product abundance [3]: 0.0698
ACAGACGAAGGAGCCGCAAAGAAGTTATTAATGGATGAATACTCCCTCAATATAAATATCTCTCACTTATTTAAA | 0.0655 | 

Sequence | cleaved RNA product abundance [2] | further results
CGACATGTCCCGCTTCTTTCATTAATCCGTTAGAAACTGTTTTGCTATATACACTTACCTTTTAAGAGGAGGAAT |  | cleaved RNA product abundance [1]: 0.157
ACAGACGAAGGAGCCGCAAAGAAGTTATTAAGGGATGAATAATGGCTCAATATAAATATCTCTCACTTATTTAAA | 0.0723 | 
CGACATGTCCCGCTTCTTTCATTAATCCATTAGCAACTGTATTGCTATATACATTTACCTTTTAAGAGGAGGAAT |  | cleaved RNA product abundance [1]: 0.279
ACAGACGAAGGAGCCGCAAAGAAGTTATTAAGCGATGAATAATCCCTCCATATAAATATCTCTCACTTATTTAAA | 0.0952 | 
ACAGACGAAGGAGCCGCAAATAAGTTATTAAGGGACGAATAATCCCTCAATATAAATATCTCTCACTTATTTAAA | 0.802 | cleaved RNA product abundance [3]: 0.65
ACAGACGAAGGAGCCGCAAAGAAGTTATTAAGGGATGAATAATACCTCAATATAAATATCTCTCACTTATTTAAA | 0.152 | cleaved RNA product abundance [3]: 0.117; cleaved RNA product abundance [4]: 0.151
ACAGACGAAGGAGCCGCACAGAAGTTATCAAGGGATGAATAATCCCTCAATATAAATATCTCTCACTTATTTAAA | 0.365 | 
ACAGACGAAGGAGCCGCAAAGAAGTTATTAAGGGATGAATTATCCCTCAACATAAATATCTCTCACTTATTTAAA | 0.284 | cleaved RNA product abundance [3]: 0.179
CGACATGTCCCGCTTCTTTCATTAATCGGTTAGCAACTGTTTTGCTATATACATTTACCTTTTAAGAGGAGGAAT |  | cleaved RNA product abundance [1]: 0.613
ACAGACGAAGGAGCCGCAAAGAAGTTATTATGGGAAGAATAATCCCTCAATATAAATATCTCTCACTTATTTAAA | 0.246 | cleaved RNA product abundance [3]: 0.159
ACAGACGAAGGAGCCGCAACGAAGTTATTATGGGATGAATAATCCCTCAATATAAATATCTCTCACTTATTTAAA | 0.483 | 
CGACATGTCCCGCTTCTTTCATTAATACGTTAACAACTGTTTTGCTATATACATTTACCTTTTAAGAGGAGGAAT |  | cleaved RNA product abundance [1]: 0.195
ACAGACGAAGGAGCCGCAAAGAAGTTATCAAGGGATGAATAATCCCTCACTATAAATATCTCTCACTTATTTAAA | 0.306 | 
ACAGACGAAGGAGCCGCAAAGAACTTATTAAGGGATGAATAATCCATCAATATAAATATCTCTCACTTATTTAAA | 0.209 | cleaved RNA product abundance [3]: 0.15
ACAGACGAAGGAGCCGCAAAGAAGTTATTAATGGATGAATAATCCTTCAATATAAATATCTCTCACTTATTTAAA | 0.191 | cleaved RNA product abundance [3]: 0.212
ACAGACGAAGGAGCCGCAAAGAAGTTATCATGGGATGAATAATCCCTCAATATAAATATCTCTCACTTATTTAAA | 0.262 | 
CGACATGTCCCGCTTCTTTCATTAATCCGGTAGCAACTGTTTTGATATATACATTTACCTTTTAAGAGGAGGAAT |  | cleaved RNA product abundance [1]: 0.316
ACAGACGAAGGAGCCGCAAACAAGTTATTAAGGGATGAATAATCCCTCAAAATAAATATCTCTCACTTATTTAAA | 0.257 | cleaved RNA product abundance [3]: 0.194

Reference: the supplement of paper PMC11780869
